Patent publication US20110034372A1

Legend:
[1] = biological target: cell surface GDF-8 binding proteins on L6 myoblasts; experiment: I-125 labeled GDF-8 receptor-ligand binding assay on myoblast cells
[2] = biological target: myostatin mature C-terminal dimer (purified from CHO cell conditioned medium) (UniProt O08689); experiment: inhibition of labeled myostatin binding to Act RIIB-transfected COS-7 cells; reference: follistatin Ki of approximately 470 pM
[3] = biological target: myostatin mature C-terminal dimer (purified from CHO cell conditioned medium) (UniProt O08689); experiment: inhibition of labeled myostatin binding to Act RIIB-transfected COS-7 cells

Sequence of myostatin mature C-terminal dimer (purified from CHO cell conditioned medium) (O08689 268-376 limits assumed): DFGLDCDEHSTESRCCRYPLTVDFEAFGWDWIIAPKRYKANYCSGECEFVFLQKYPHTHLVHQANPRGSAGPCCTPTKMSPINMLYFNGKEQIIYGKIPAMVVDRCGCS
Sequence of Recombinant human GDF-8 (rhGDF-8) homodimer (O14793 267-374): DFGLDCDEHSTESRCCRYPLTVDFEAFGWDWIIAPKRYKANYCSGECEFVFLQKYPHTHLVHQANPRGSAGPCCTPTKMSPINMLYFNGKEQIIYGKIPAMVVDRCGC

For “Recombinant human GDF-8 (rhGDF-8) homodimer (from UniProt O14793 267-374) (ligand)”, the Kd [1] was 0.37 nM.
For “myostatin prodomain peptide (purified from CHO cell conditioned medium) (from UniProt O08689 25-267)”, the Ki, fold relative to the Ki of follistatin [2] was 50 fold.
In the case of follistatin, the Ki [3] is reported as 0.47 nM.
